In this assay the target is human Gastric Inhibitory Peptide Receptor (human) (UniProt P48546). Kind of assay: FACS competition with GIP-057 on CHO-K1-hGIPR cells; pIC50 category A: >8.0.

*1 amine or outer side, *2 acyl side, *3 side chain or, on linkers, in order; H or OH if unused. Bridges are numbered along the chain shown (N, C = ends). Primed or numbered codes have the meaning given here. Where no end group is shown, it is not given here. Side-chain parts run from the residue outwards. [ ]: non-standard residue; d: D form. The star is where a group is joined. TBMB(SCH2CH2NH-DOTA) = O=C(O)CN1CCN(CC(=O)O)CCN(CC(=O)NCCSCc2cc(C[*:1])cc(C[*:2])c2)CCN(CC(=O)O)CC1; Ttds = 1,13-diamino-4,7,10-trioxatridecan-succinamic acid, NCCCOCCOCCOCCCNC(=O)CCC(=O)*; NH(1-deoxy-D-glucityl) = OC[C@@H](O)[C@@H](O)[C@H](O)[C@@H](O)CN*; Pro(trans-4-NH2) = O=C([C@@H]1C[C@@H](N[*:3])CN1[*:1])[*:2]; DOTA = O=C(O)CN1CCN(CC(=O)O)CCN(CC(=O)*)CCN(CC(=O)O)CC1; MeO2kDaPEGAc = polydisperse 2 kDa PEG (methoxy, acetyl); 2Lut = 2,6-lutidylidene bridge between two thiols; Trp(5-Br) = N[C@@H](Cc1c[nH]c2ccc(Br)cc12)C(=O)O; Trp(5-Cl) = N[C@@H](Cc1c[nH]c2ccc(Cl)cc12)C(=O)O; Pyridine(2,6-diCH2) = c1cc(C[*:1])nc(C[*:2])c1; Trp(6-F) = N[C@@H](Cc1c[nH]c2cc(F)ccc12)C(=O)O; 2Lut″ = 2,6-lutidylidene linking two thiols; APAc = 4-amino-1-carboxymethylpiperidine; Pro(3S-OH) = O=C(O)[C@H]1NCC[C@@H]1O; mXylylene = c1cc(C[*:1])cc(C[*:2])c1; Glutaryl = O=C(CCCC(=O)[*:2])[*:1]; Hyp = O=C(O)[C@@H]1C[C@@H](O)CN1; Cysteamide = C(CS[*:3])N[*:1]; dGlu(AGLU) = not defined here; Suc = O=C(CCC(=O)[*:2])[*:1]; αMeS = C[C@](N)(CO)C(=O)O; Api = NC1(C(=O)O)CCNCC1; Thp = NC1(C(=O)O)CCOCC1; AEEA = NCCOCCOCC(=O)O; Aib = CC(C)(N)C(=O)O; Sar = CNCC(=O)O

With Suc-W[Trp(5-Cl)][Hyp]E[dL]C[Thp]LIC-{Lys(DOTA)-NH2} (linker 6-10 via Pyridine(2,6-diCH2)) [HO-Succinyl-Trp-5Clw-Hyp-Glu-leu-[Cys(2Lut)-Thp-Leu-Ile-Cys]-Lys(DOTA)-NH2], the pIC50 was above 8 pic50.

Consider Ac-DW[Trp(5-Cl)][Hyp]E[dL]C[Api](DOTA)LIC-NH2 (linker 7-11 via Pyridine(2,6-diCH2)) [Ac-Asp-Trp-5Clw-Hyp-Glu-leu-[Cys(2Lut)-Apc(DOTA)-Leu-Ile-Cys]-NH2], for which the pIC50 was above 8 pic50.

Molecule {DOTA-Ttds}-D[Trp(6-F)][Trp(5-Cl)]PE[dL]C[Aib]LI[Cysteamide] (linker 7-11 via mXylylene) [DOTA-Ttds-Asp-6Fw-5Clw-Pro-Glu-leu-[Cys(3MeBn)-Aib-Leu-Ile-AET]] displayed a pIC50 above 8 pic50.

Turning to MeO2kDaPEGAc-DW[Trp(5-Cl)][Hyp]E[dL]C[Thp]LIC-{dK(DOTA)-NH2} (linker 7-11 via Pyridine(2,6-diCH2)) [MeO2kDaPEGAc-Asp-Trp-5Clw-Hyp-Glu-leu-[Cys(2Lut)-Thp-Leu-Ile-Cys]-lys(DOTA)-NH2], the pIC50 is above 8 pic50.

With Ac-DW[Trp(5-Cl)][Pro(trans-4-NH2)]E[dL]C[Api](DOTA)LIC-NH2 (linker 7-11 via 2Lut″) [Ac-Asp-Trp-5Clw-Tap-Glu-leu-[Cys(2Lut)-Apc(DOTA)-Leu-Ile-Cys]-NH2], the pIC50 was above 8 pic50.

Turning to Ac-DW[Trp(5-Cl)][Hyp]E[dL]C[Thp]LIC-NH2 (linker 7-11 via TBMB(SCH2CH2NH-DOTA)) [Ac-Asp-Trp-5Clw-Hyp-Glu-leu-[Cys(tMeBn(DOTA-AET))-Thp-Leu-Ile-Cys]-NH2], the pIC50 is above 8 pic50.

The molecule W[Trp(5-Cl)][Hyp]E[dL]C[Thp]LIC-{dK(DOTA)-NH2} (linker 6-10 via 2Lut; not fully specified (N-terminus)) [HO-Succinyl-Trp-5Clw-Hyp-Glu-leu-[Cys(2Lut)-Thp-Leu-Ile-Cys]-lys(DOTA)-NH2] registered a pIC50 above 8 pic50.

B1: DOTA-Ttds-Asp-Trp-5Clw-Pro-Glu-leu-[Cys(3MeBn)-Ams-Leu-Ile-AET] (peptide)
peptide: {DOTA-Ttds}-DW[Trp(5-Cl)]PE[dL]C[αMeS]LI[Cysteamide]
modifications: linker (positions not given here) via mXylylene; not fully specified (bridges); printed as DOTA-Ttds-Asp-Trp-5Clw-Pro-Glu-leu-[Cys(3MeBn)-Ams-Leu-Ile-AET]
B1 came in with a pIC50 above 8 pic50.

B2: DOTA-Ttds-Asp-Trp-5Clw-Nmg-Glu-leu-[Cys(3MeBn)-Aib-Leu-Ile-AET] (peptide)
peptide: {DOTA-Ttds}-DW[Trp(5-Cl)][Sar]E[dL]C[Aib]LI[Cysteamide]
modifications: linker (positions not given here) via mXylylene; not fully specified (bridges); printed as DOTA-Ttds-Asp-Trp-5Clw-Nmg-Glu-leu-[Cys(3MeBn)-Aib-Leu-Ile-AET]
On to B2, for which the pIC50 was above 8 pic50.

As for {DOTA-Ttds}-DW[Trp(5-Cl)][Pro(3S-OH)]E[dL]C[Aib]LI[Cysteamide] (linker 7-11 via mXylylene) [DOTA-Ttds-Asp-Trp-5Clw-H3p-Glu-leu-[Cys(3MeBn)-Aib-Leu-Ile-AET]], the pIC50 was above 8 pic50.

On to {DOTA-Ttds}-D[Trp(6-F)][Trp(5-Br)]PE[dL]C[Aib]LI[Cysteamide] (linker 7-11 via mXylylene) [DOTA-Ttds-Asp-6Fw-5Brw-Pro-Glu-leu-[Cys(3MeBn)-Aib-Leu-Ile-AET]], for which the pIC50 was above 8 pic50.

{DOTA-dGlu(AGLU)-AEEA}-DW[Trp(5-Cl)][Pro(trans-4-NH2)]E[dL]C[Api]([Glutaryl-NH(1-deoxy-D-glucityl)])LIC-{APAc-dGlu(AGLU)-NH2} (linker 7-11 via 2Lut; reading uncertain) registered a pIC50 above 8 pic50.

The record behind these values is US20250296971A1, “GASTRIC INHIBITORY PEPTIDE RECEPTOR LIGANDS” (priority 2021, published 2025).
